# Assay results from the DeepSol protein solubility set.
# Experiment: soluble on expression in E. coli; label from the status in PepcDB or PDB records
row,Sequence,soluble on expression in E. coli
1,MEKRGKVWLAVSGLVATKDGRWLFVKKKYSGLKGKWSLPAGFVNEGETVDEAVKREVLEETGIVAHVKGIIGVRSGVIRNEISDNMIIFLLEPEGENIIIQEKELSEVAFLHPDKIVDDPNTSVLIKYLLEGRSELHLEVDKTLNPGEPFGYTAYHVFTARAKERGKE,not soluble
2,MEKSAPSIILNHWCVTWQGHHFLCRNLSNIKILNRRNGYTTLDLPLTLGDLTQYRLAHGLSENLMALSPYSWTIPFLVSSSETPGIELLPKVINDFGTPLSLAIKTNLPSIPAHQLLFYIIFLRPSPLTSMSCYARPLSLASTPSLEHHHHHH,soluble
3,MEKSKPNVVFVLGGPGSGKGTQCANIVRDFGWVHLSAGDLLRQEQQSGSKDGEMIATMIKNGEIVPSIVTVKLLKNAIDANQGKNFLVDGFPRNEENNNSWEENMKDFVDTKFVLFFDCPEEVMTQRLLKRGESSGRSDDNIESIKKRFNTFNVQTKLVIDHYNKFDKVKIIPANRDVNEVYNDVENLFKSMGF,soluble
4,MEKSLETVPGLDLSGEDIEMYYQYVRFVDRFLRFNRNYQIEYFKLSYPGDGSSEREVDLLKRWIDTVIQLKVKDLDFFDYSWEWGFDNFQLPSTIYICESLVSLKLSTVTLPSVKSVSLPFLRVLKLGAVKFADHLDLETLISGCTALETLAIRFFDRVQVLQVSSQSLLSFTHVAPKLVFTHAVRKPLAEKDLSIVIDAPRLEYLKLSDHQTSSFIIKNPGSLVAVDIDINLSSGFDSRNMIRDFLVGISSVKNMTISSIILKFYDYRFKMLPTFLEICPNLKSLILKSTEELGIKESSMFSGPQDFLPSLEYVEMKMPLKKGLLLEIRMLVGYFLEKATILKKLTLCLDDYRKRKESLIPRILAIPRISTSCEVVVL,soluble
5,MEKTSNTSKPLSRSEINKIIAVATGIKEKKIKEIFKYLNTLLLNELVSRSVCILPENLGKLRITIRNARYQKDMQTGEIRHIPPKPLVRYSPSKTIKETAAKVRWKYAD,soluble
6,MEKVHAALTNPAYWDFIVKNLSPEPGEVHEFTEANGGAVATLFEVLPQELLPEAIRAMISQALKVKRVVTVGGLNGTSAPLSYTADVKGTPVDFKGEISMNGLGNTTTLSYANEITVNIPLMGAAIEPKVGQALADLFQNEGDLTSKWISKNL,not soluble
7,MELAKFIGLTTFQDILEDCFALLVYERPEESNVGYFLEETQREVVADTVNAAILSTKPKGKNQSHSHLETLLRQLTACCLELRSLNDGQGEAFSLNRLLRTNNWKRTKKTT,soluble
8,MELAQEARELGCWAVEEMGVPVAARAPESTLRRLCLGQGADIWAYILQHVHSQRTVKKIRGNLLWYGHQDSPQVRRKLELEAAVTRLRAEIQELDQSLELMERDTEAQDTAMEQARQHTQDTQRRALLLRAQAGAMRRQQHTLRDPMQRLQNQLRRLQDMERKAKVDVTFGSLTSAALGLEPVVLRDVRTACTLRAQFLQNLLLPQAKRGSLPTPHDDHFGTSYQQWLSSVETLLTNHPPGHVLAALEHLAAEREAEIRSLCSGDGLGDTEISRRAGGLWVCWSPSGAPS,soluble
9,MELLCPAGNLASLKSALQAGADAVYLGLKDDTNARSFAGLNFTPAKLQEAAELTHQRGKKIFLTLNTFPKPNEEHRWYQAIDLAAKIGVDALIVADLSLLDYAHRQYPHIPLHLSVQASATNLGALSFYKEAFNVSRVVLPRVLSMKQVRDLAKVSPVDLEVFAFGSLCIMAEGRCHLSSYVTGQSPNTGGSCSPAKHVRWQEQGQDRLTWLNEVLIDKSGLDEQMGYPVVCKGRYLTQEDDKPQYLLESPTSLNTLSLLPELAKAGIVSLKIEGRQRSPAYVEQVTKVWRQAIDTYLNHPDKFQTQAHWEQALAKVSEGQITTLGAYERNWQ,not soluble
10,MELLLYSLDNEGPIRFIQITDTHLVEAADGHLLGLETQNSLEHVLSSVQSENDQFDFFVVSGDISQDGSLSSYQRLHESLAPFNVPSFWFPGNHDEMSNMKVVCQDTEHLVNIIRTPHWQLVLLNSQVEGAVFGNLGDDQFELLERALTERPDLHTLISLHHHPIPMESNWMDKIGVKNGDKLMAMARKYPKVKCILWGHVHQDSDRMVDGIRMLSTPSTCVQFMPKSKDFNIDMIAPGYRRLQLNPDGSIETEMSRVEGIEFEVDLSVKGY,soluble
11,MELSSPGVGSGLDVKNLVDAIVTAEITPSQVRHDKQLNSVNTELSALGQLKSYLTNLQTSLAKLSSLSQFYTMKSTISDPNYFSATLGTGATKNTYQIEIQKLAQQHS,not soluble
12,MELWGRMLWALLSGPGRRGSTRGWAFSSWQPQPPLAGLSSAIELVSHWTGVFEKRGIPEARESSEYIVAHVLGAKTFQSLRPALWTQPLTSQQLQCIRELSSRRLQRMPVQYILGEWDFQGLSLRMVPPVFIPRPETEELVEWVLEEVAQRSHAVGSPGSPLILEVGCGSGAISLSLLSQLPQSRVIAVDKREAAISLTHENAQRLRLQDRIWIIHLDMTSERSWTHLPWGPMDLIVSNPPYVFHQDMEQLAPEIRSYEDPAALDGGEEGMDIITHILALAPRLLKDSGSIFLEVDPRHPELVSSWLQSRPDLYLNLVAVRRDFCGRPRFLHIRRSGP,soluble
13,MEMAYDFAETKDTAIIFIYRPPVGDIQISPVLEGPRRLRLWNDITISLYKDVYPDIRLIESRSRVEVHLRKVEMVRWGGINGRPADKPQDDGKETMVEDSGDEENPSVMDLFSKIYQRSGDDVRRAMEKSFYESEGTVLSTDWDQVKSKKITRED,not soluble
14,MEMDKAVTGVALDLDHAQIGLIGIPDQPGIAAKVFQALAERGIAVDMIIQGVPGHDPSRQQMAFTVKKDFAQEALEALEPVLAEIGGEAILRPDIAKVSIVGVGLASTPEVPAKMFQAVASTGANIEMIATSEVRISVIIPAEYAEAALRAVHQAFELDKAHHHHHH,soluble
